The target of the test is A9UPE9 PDZ (A9UPE9_MONBE PDZ domain, residues 7-98) (Monosiga brevicollis). The experiment in a line: fluorescence polarisation.
The Ki is the equilibrium dissociation constant of an inhibitor or competing ligand from its target. Higher therefore signals weaker binding. For DLL1/DLL4 peptide (VIATEV), the Ki was 240 µM. To TYRP1 peptide (PNQSVV) belongs 97 µM; to A9UWP5_MONVE peptide (GSESSV), 490 µM; to A9UXE1 peptide (QDETAL), 460 µM. Consider A9UP44 peptide (QSESRL), for which the Ki amounted to 64 µM. This Ki lies about 7.2-fold lower than the previous one. The substance A9V6G5_MONBE peptide (HRESTV) yielded a Ki of 97 µM.

B1AR peptide (ASESKV) returned a Ki of 95 µM. To A9V7Z4 peptide (EDETAL) belongs 580 µM. In the case of BPIX peptide (WDETNL) it was 330 µM.

Values taken from paper PMC8512817.
